# Reference: the DeepSol protein solubility set
# Experiment: soluble on expression in E. coli; label from the status in PepcDB or PDB records
row,Sequence,soluble on expression in E. coli
1,GAQLLGVHPKGESQRASRGGGQATKMSSAVGPRGPRPPTVPPPMQELPDLSHLTEEERNIIMAVMDRQKEEEEKEEAMLKCVVRDMAKPAACKTPRNAENQPHQPSPRLHQQFESYKEQVRKIGEEARRYQGEHKDDAPTCGICHKTKFADGCGHLCSYCRTKFCARCGGRVSLRSNNEDKVVMWVCNLCRKQQEILTKSGAWFFGSGPQQTSQDGTLSDTATGAGSEVPREKKARLQERSRSQTPLSTAAASSQDAAPPSAPPDRSKGAEPSQQALGPEQKQASSRSRSEPPRERKKTPGLSEQNGKGALKSERKRVPKTSAQPVEGAVEERERKERRESRRLEKGRSQDYPDTPEKRDEGKAADEEKQRKEEDYQTRYRSDPNLARYPVKPPPEEQQMRMHARVSRARHERRHSDVALPRTEAGAALPEGKAGKRAPAAARASPPDSPRAYSAERTAETRAPGAKQLTNHSPPAPRHGPVPAEAPELKAQEPLRKQSRLDPSSAVLMLRNDSLSSDQSESVRPSPPKPHRSKRGGKKRQMSVSSSEEEGVSTPEYTSCEDVELESESVSEKGDLDYYWLDPATWHSRETSPISSHPVTWQPSKEGDRLIGRVILNKRTTMPKDSGALLGLKVVGGKMTDLGRLGAFITKVKKGSLADVVGHLRAGDEVLEWNGKPLPGATNEEVYNIILESKSEPQVEIIVSRPIGDIPRIPESSHPPLESSSSSFESQKMERPSISVISPTSPGALKDAPQVLPGQLSVKLWYDKVGHQLIVNVLQATDLPARVDGRPRNPYVKMYFLPDRSDKSKRRTKTVKKILEPKWNQTFVYSHVHRRDFRERMLEITVWDQPRVQEEESEFLGEILIELETALLDDEPHWYKLQTHDESSLPLPQPSPFMPRRHIHGESSSKKLQRSQRISDSDISDYEVDDGIGVVPPVGYRSSARESKSTTLTVPEQQRTTHHRSRSVSPHRGNDQGKPRSRLPNVPLQRSLDEIHPTRRSRSPTRHHDASRSPVDHRTRDVDSQYLSEQDSELLMLPRAKRGRSAECLHTTR,soluble
2,MSLTLPDTDQLVAGIQSWIQCESPSNSPAGVTAMAHLAAEYARAVGLAVEIRPLNAEVGPLVHATNRAAGDTRPGVLILGHIDTVHPIGTLQDNPCRIDGDRLYGPGSYDMKAGIYLALSALRGLPSPDATALPVDFLLVPDEETGSHASREHIEHYAARAKYALVCEPARPNGGKCVTARKGTGMLRLNVKGRPAHAGMQHEKGRSAIREMAHQVLELESMTDYERGITVSVGTIAGGTVTNTVPAQCRCVVDFRVPDMGATEDVLRRMRNLCSVGPDMELDIDVELNRPPMVKTEAASALLQLAQDFAAQAGFALEDAPMTGGGSDANFTSAMGVPTLDGLGADGDGAHTLNEYILVSTLAARMRFWELLLKELHEGHHHHHH,soluble
3,MISLPIDLVLPDLREALVNRNEVILEAPPGAGKTTRVPLALLNESWLGDQKILMLEPRRLAARAAAERLASELGEKVGEIVGYRIRLESKVGPRTKIEVVTEGILARRLQDDPALDGVGVVIFDEYHLRNLHSDLALALCLSGRDLLRDDPPLKLLLMSAT,not soluble
4,MSQKLKVVTIGGGSSYTPELLEGFIKRYHELPVSELWLVDVEGGKPKLDIIFDLCQRMIDNAGVPMKLYKTLDRREALKDADFVTTQLRVGQLPARELDERIPLSHGYLGQETNGAGGLFKGLRTIPVIFDIVKDVEELCPNAWVINFTNPAGMVTEAVYRHTGFKRFIGVCNIPIGMKMFIRDVLMLKDSDDLSIDLFGLNHMVFIKDVLINGKSRFAELLDGVASGQLKASSVKNIFDLPFSEGLIRSLNLLPCSYLLYYFKQKEMLAIEMGEYYKGGARAQVVQKVEKQLFELYKNPELKVKPKELEQRGGAYYSDAACEVINAIYNDKQAEHYVNIPHHGQIDNIPADWAVEMTCKLGRDGATPHPRITHFDDKVMGLIHTIKGFEIAASNAALSGEFNDVLLALNLSPLVHSDRDAELLAREMILAHEKWLPNFADCIAELKKAH,soluble
5,MAADGTYDELERGEKSKLRDDVVDIQKKPFSILFMGVEDYSTNGEHGRTDSLIVVTLDPKKKSMKMLSIPRDTRVHLASDTTGTKTKINAAYAKGGKDETIETVEDFLGIPIDYYATVDFDGFKDVIDEIGGIDVDVPFDFSEKSDVSKSKRIYFKKGNMHLNGEEALAYARMRKQDKRGDFGRNDRQKQILKAALDQISKPQNLAKIDTIAQKASKNIQTNFRITQALALQQIYSGFAGDDIKTLNITGQDLTIANVYYFEPDQQNLENVQNELTHHLYPLEHHHHHH,soluble
6,GAPRSHEVPLLVTLEELYLGKRKKIKVTRKRFIEHKVRNEENIVEVEIKPGWKDGTKLTYSGEGDQESPGTSPGDLVLIIQTKTHPRFTRDDCHLIMKVTIPLVRALTGFTCPVTTLDNRNLQIPIKEIVNPKTRKIVPNEGMPIKNQPGQKGDLILEFDICFPKSLTPEQKKLIKEALD,soluble
7,MGSDKIHHHHHHMKQYGEKFIDEFSKAEFEKLAKQGQLIDVRTEEEYALGHINGSILHPVDEIESFNKEKNKTYYVICRSGNRSANASKYLAKQGYNVINLDGGYKAYEENDSYDTQEEYKSIEIKADRKQFNYRGFQCPGPIVKISQEMKNIEVGDQIEVKVTDPGFPSDIKSWVKQTRHTLVKLDENNNGINAIIQKEKAKDLDINYSAKGTTIVLFSGELDKAVAALIIANGARAAGKDVTIFFTFWGLNALKKVQTVNVKKQGIAKMFDLMLPQKNIRMPLSKMNMFGLGNMMMRYVMKKKNVDSLPTLINQAIEQNIKLIACTMSMDVMGIQKEELRDEVEYGGVGTYIGATENANHNLFI,not soluble
8,MTNLEIEYKTLLTKNEYNRLLSQMKHVTPVTQTNYYIDTKAFDLKANKMSLRIRTFVNSAELTLKVPEKVGNREYNVPLFLEQAKDMIKHGNLPESTALDIIISKGIKPSALVTFGNLTTVRRETVIPIGKLALDYNLYANTKDYELELEVSDALQGKIDFDSFLSEYHITFKYAKSKVARCINTLKKFNDK,not soluble
9,QTEVQKLTNAKAIITYLAEKFPLCFVLEGEAKPLKIGLFQDLAEALQDDERVSKTQLRQALRQYTSNWRYLYGCREGAVRVDLQGNPAGVLDAEHVAHAAQQLAEAKARFAEKRKQKLQLKKHNKKSIRVNLRIKTLKKRV,not soluble
10,MGSDKIHHHHHHMTVAKGSIHGIIGENGAGKSTLMSILYGFYQADSGEIKIGGQSTVIKDSQAAISSGIGMVHQHFMLVENFTVLENVMLGAEGGALLAKGTAAARASLKQLETDYGLDVDPDAVVEELPVGRQQRVEILKALYRGADILILDEPTGVLTPAEADHLFKILRVLRDQGKTVILITHKLREIMAITDTVSVMRRGEIVATRKTVETSVEELAELMVGRRVLLRVDKQPAQPRDVLLSVRNLTVKDSRGVIMVDDVSFDVREGEIVGIAGVAGNGQSELLEAITGIRKPMSGEILIAGKLVTGYDPARLRDLGLAHIPEDRHHMGLVLPFEESQNAILGYHRDERYGKGMFLDPKAIRAAAEVEIAKYDIRPPNPRLKTANFSGGNQQKIVVAREIERDPNVLIIGQPTRGVDIGAIEFIHRRIVETRDKGKALLLVSVELDEIRSLSDRILVMFAGKVVGEKTADADEQTLGLMMAGIAA,not soluble
11,MSSAFLADRRLIRVSGTGAEEFLNNLITADIENLPEGETRASALLTPQGKILFDFLIWRDGRDYLVETGAAEQDALLRRLTMYKLRAPVELKAETVEGIGVFWGNSVTEAGVRDGRFAKAGVDLRRVPGASASGEAAAYEALRVEHGIAESGRDYALQDAFPHDVLMDVNDGVSFKKGCFVGQEVVSRMKHRGTARRRVVTVSADGTLPASGTEITANGKPVGALGTVYGNRALAIVRTDRVADALAAGTPLLADNVAVSVALPAWSGLSFPAADPAARAED,not soluble
12,MGSDKIHHHHHHMLAKRIIACLDVKDGRVVKGTNFENLRDSGDPVELGKFYSEIGIDELVFLDITASVEKRKTMLELVEKVAEQIDIPFTVGGGIHDFETASELILRGADKVSINTAAVENPSLITQIAQTFGSQAVVVAIDAKRVDGEFMVFTYSGKKNTGILLRDWVVEVEKRGAGEILLTSIDRDGTKSGYDTEMIRFVRPLTTLPIIASGGAGKMEHFLEAFLAGADAALAASVFHFREIDVRELKEYLKKHGVNVRLEGL,soluble
13,MITLYGFGKCFNVMDASPFVVKVDLFMRMANIPCQVKYGAKYLKKSPKGKLPFINDNGTVVADSDAIITYLTKQYQVTLDAELTPEQKAQAHLITKSLDEGLYWCLVYSRWATDECWPLTNEAFFATLPIPLRWFLPNIIRKSVKKNLHGQGVGRHSLEEILAISDKSLASLSTLLADKNFFFGDTHTSFDAVVYSHLCEFISVRFDNGFESKFTKNAKRYQNLVQFCQRIEDKFYPEKLEHHHHHH,soluble
14,GVALGATRVIYPEGQKQVQLAVTNNDDKSSYLIQSWIENAEGKKDARFVITPPLFSMQGKKENTLRIIDATNGQMPEDRESLFWVNVKAIPAMDKAKTGENYLQFAIVSRIKLLYRPQGLVIPPEQAPGKLEFTRENGGLTLFNPTPYYLTVTDLKAGNKSLENTMVPPQGKVTVNIPGGYTGGDITYKTINDYGALTEQVRGVVK,soluble
15,GPGSMSGSTQRAEQQRRIQQLHERLELYNIADRHTDPTSNSAGGVGFASAGGLETGGGDKAPTTKPSRAAPMSGSPNLKPTSAPTSNAFFFTSSLPRRAADAGAPSSTLGLQQGNGSGSRATAAPSATEIAEVSRASPTPQQQPQVQMPPPAPAPQLARNLAQEFFGSAASPTHASPTRAASRSSAMTSGAAASPVAPERPSVTAAYPESATEATAAATAAKAGSPPLAANVFDYYEDFKSDGSEGDEYEVEEVEECMEDEEDYVGDGEDTDEHARGKASLTLEDVLRRLHRACSGSVDHAAAASPLEQAMAAASASSPLARDPSLATATPAAAAATRVTLTAAAASPIGTTYPFLQQATEVYRQRHLYKATQEHQQHHSPFNTGYAWSTDEETSVTDTSTSEPTEGLGDASESRSASVSSSASAASKGHLTAANAAAAVQNSGLLAAALQPLADTAIATPTASDRASAEKVLPSSALCFDQLETAYRRLLILQQGAKYVSELAGPECFPRPLPRQEEARALAEQRDMVVKRDTEMRAAPPAGSSLEDLRQRESAAIERTLGLLREKFDAAMKSLKPVADREAAIEGKRRTLKQRELDIAKQREARLIVEREVAAAEKRLMERSEQLRKREEDYSARLQQHDHQQKAAQEQIGEVEQLSKQVSSWLAILEERDRRLARKEKRLQRVQADLLKRTEDIIVWKRATQRIKQIPPPPSPPRIS,not soluble
16,MGSDKIHHHHHHMCPARLRTPRTASLPTHRRSAMTTANPLNTSFTSADAAELYQVPNWSGGWFRVSDKGLMEATPAPGLHASLRAIVDEIVDRGESLPVILRFPQVLAGRVKHLNEAFQAAINEYNYSGHYQGVFPIKVNQRRAVVETVAAAGYDYAHGLEAGSKAELALCLAQKMHPDALLCCNGFKDDGFIKLALWGRTLGKNVVITIEKFTELDRILKQAKALGVKPAVGVRFKLHARGSGQWEESGGDQAKFGLNAYELLRVVERLKEENMLDSLVMLHTHIGSQITDIRRVKVAVREAAQTYAGLIAAGADLKYLNVGGGLGVDYDGSKTTFYASMNYTVKEYAADIVYTVQEVCKAREVPEPVIVSESGRALTAHHAVLILPVVDVTGPTRNLEDQELTVPGEDSHQIVRDMYETLENISMRNYRESYNDAVGDKQTLHNLFDLGYVTLEDRARGEALFNAILRKIAKLIQGEKYVPDELEDLQKVLADKFICNFSLFQSLPDNWAIGALFPIVPLDRLNEQPTRQATLVDITCDSDGKVEKFIDLRDVKATLPLHEPGDRPYYLGAFLMGAYQDVLGSAHNLFGKVSEAHVTVRPGGRFNIDLFVRGQKARRMIESMGYEEPMLRDAIEDQADAAIGRGTLTQEQEHELLEDYGEELLGYTYLEYES,not soluble
17,MLTPTPDSSPRSTSSPSQSKNGSFTPRTANILKPLMSPPSREEIMATLLDHD,soluble
